Experiment [1] deals with 1G4 TCRαβ with βA291 (αWT, β Y291A), β-HA and α-FLAG. The conditions noted are these: scale: nM.
Experiment [2] concerns the target 1G4 TCRαβ wild type (HLA-A2-restricted TCR specific for NY-ESO-1 157-165), β-HA and α-FLAG. The note with it: scale: nM.
For experiment [3], the target named is 1G4 TCRαβ with βA291 (αWT, β Y291A), β-HA and α-FLAG. Description: co-IP; DDM stability assay (DSA): J76 cells lysed in 0.5% DDM, 150 mM NaCl, 20 mM Tris pH 8.0, 30 min on ice; post-nuclear lysate on anti-HA agarose beads (β-HA) 1 h at 4°C; quantitative immunoblot of β (HA), ε, γ, δ, ζ; ratios normalised to WT; also after A770041 treatment of the cells.
Experiment [4] has as its target QM-α TCRαβ (1G4 variant with mutations in αCDR2, βCDR2 and βCDR3), β-HA, in J76 cells. Put plainly: pull-down; ζ recovered with ligand-engaged TCR: (9V-A2)4-His bound to intact cells (37°C or 0°C, ± A770041), 0.5% DDM lysis, capture on HisPur cobalt resin; ζ/β2 compared with non-stimulated anti-HA pull-down (= 1).
The target of experiment [5] is wtc51 TCRαβ (1G4 variant with four mutations in βCDR2), β-HA, in J76 cells. The description is as above.
The target of experiment [6] is 1G4 TCRαβ wild type (HLA-A2-restricted TCR specific for NY-ESO-1 157-165), β-HA and α-FLAG. Put plainly: co-IP; DDM stability assay (DSA): J76 cells lysed in 0.5% DDM, 150 mM NaCl, 20 mM Tris pH 8.0, 30 min on ice; post-nuclear lysate on anti-HA agarose beads (β-HA) 1 h at 4°C; quantitative immunoblot of β (HA), ε, γ, δ, ζ; ratios normalised to WT; also after A770041 treatment of the cells.

Experiment [7] has as its target wtc51 TCRαβ (1G4 variant with four mutations in βCDR2), β-HA, in J76 cells.

Regarding “6V-HLA-A2 tetramer on phycoerythrin-conjugated streptavidin (from UniProt P61769 21-119) (peptide-MHC)”, the values for the pErk MFI (flow cytometry) of CD8- J76 cells against (6V-A2)4 nM, EC50 of the non-linear regression fit in experiment [1] and in experiment [2] were 19 and 19.5, respectively.

As for “CD3γ, endogenous in J76 Jurkat cells (from UniProt P09693 23-182) (natural protein)”, the reduction of recovery against 1G4-WT in experiment [3] was determined as 40%.

Consider “CD3δ, endogenous in J76 Jurkat cells (from UniProt P04234 22-171) (natural protein)”, for which the reduction of recovery against 1G4-WT in experiment [3] came to 10%.

On to “CD3ε, endogenous in J76 Jurkat cells (from UniProt P07766 23-207) (natural protein)”, for which the ε/βT ratio (1G4-WT = 1) (ratio to 1G4-WT) in experiment [3] was determined as 0.5.

With “CD3ζ (ζζ), endogenous in J76 Jurkat cells (from UniProt P20963-1 22-164) (natural protein)”, in experiment [4], the reduction of the ζ/β2 ratio of liganded against unliganded TCR came to 40%. The ζ/β2 ratio of liganded against unliganded TCR (= 1) (ratio to unliganded wtc51) in experiment [5] was 0.5. Moreover, in experiment [3], the ζ/β2 ratio (1G4-WT = 1) (ratio to 1G4-WT) came to 0.2.

For the substance “CD3ζ I38A expressed in J76-1G4WT-ζKO cells (from UniProt P20963-1 22-164) (natural protein)”, the ζ/β2 ratio (ζWT = 1) in experiment [6] is 0.05 ratio to ζWT.

In the case of “CD3ζ I41A expressed in J76-1G4WT-ζKO cells (from UniProt P20963-1 22-164) (natural protein)”, the ζ/β2 ratio (ζWT = 1) in experiment [6] is 0.25 ratio to ζWT.

On to “soluble monovalent 9V-HLA-A2 (biotinylated pMHC monomer) (from UniProt P61769 21-119) (peptide-MHC)”, for which, in experiment [7], the pErk immunoblot of J76 wtc51 cells, dose response of sm-9V-A2 (Figure S7F) stood at 3 nM.

The values are drawn from publication PMC8293630.
